The data set concerns the molecule itself. Description: NMR solution structure (self-association, homodimer). The procedure:
For NMR data collection PIP-72Aa (SEQ ID NO: 2) was used at 0.7 mM formulated in 20 mM MES, pH 6.5, 100 mM NaCl, and 5 mM CaCl₂. D₂O and DSS (4,4-dimethyl-4-silapentane-1-sulfonic acid) were added to 10% and 50 μM final concentrations, respectively. This was then loaded into a 4 mm NMR tube (Shigemi). Data collection was at 25° C. on a Bruker 800 MHz spectrometer equipped with a cryo-probe (Monleon, D. et al. 2002, J Struct Funct Genomics 2: 93).
A NOESY peak list containing expected intra-residue, sequential and α-helical medium range NOE peaks was initially generated and manually edited by visual inspection of the simultaneous NOESY (100 ms mixing time) and 13C-edited aromatic NOESY (100 ms mixing time) spectra. NOEs were assigned using matching tolerances of 0.030, 0.025 and 0.40 ppm for indirect 1H, direct 1H and heavy atom 13C/15N, respectively. Subsequent manual peak picking was used to identify remaining, primarily long-range NOEs. In addition, backbone dihedral angle constraints were derived from chemical shifts (Shen, Y. et al. 2009 J Biomol NMR 44:213) for residues located in well-defined secondary structure elements. The initial structure was refined in explicit solvent using standard methods (Linge, J. P. et al. 2003 Proteins-Structure Function and Bioinformatics 50:496).

B1: PIP-72Aa (Pseudomonas Insecticidal Protein-72Aa) polypeptide of SEQ ID NO: 2 (other)
chain: MGITVTNNSSNPIEVAINHWGSDGDTSFFSVGNGKQETWDRSDSRGFVLSLKKNGAQHPYYVQASSKIEVDNNAVKDQGRLIEPLS
modifications: uniformly 15N,13C isotope labeled
notes: Insecticidal protein from Pseudomonas chlororaphis strain SS143D5; For NMR it was expressed in E. coli with an N-terminal His tag, which was removed by proteolysis, so untagged PIP-72Aa was used; also called IPD072Aa
Regarding B1, the binding result is recorded as “binds”.

The values are drawn from patent publication US20180111967A1 (PIONEER HI BRED INTERNATIONAL, published 2018).
